Key:
[1] = target: T1, 4H40-bH; assay: two-hybrid library CCNG1;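 also: natural log of median RNA to DNA barcode read ratio; higher means stronger binding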
T1 chain: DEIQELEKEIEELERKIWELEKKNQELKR

[2] = target: T2, 4H3462-bH; assay: two-hybrid library CCNG1;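 also: natural log of median RNA to DNA barcode read ratio; higher means stronger binding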
T2 chain: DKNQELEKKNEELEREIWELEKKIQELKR

[3] = target: T3, 4H3628-bH; assay: two-hybrid library CCNG1;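 also: natural log of median RNA to DNA barcode read ratio; higher means stronger binding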
T3 chain: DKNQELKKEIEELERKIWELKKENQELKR

[4] = target: T4, 4H3613-bH; assay: two-hybrid library CCNG1;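 also: natural log of median RNA to DNA barcode read ratio; higher means stronger binding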
T4 chain: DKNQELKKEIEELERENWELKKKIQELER

[5] = target: T5, 4H626-bH; assay: two-hybrid library CCNG1;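 also: natural log of median RNA to DNA barcode read ratio; higher means stronger binding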
T5 chain: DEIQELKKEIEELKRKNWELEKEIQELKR

[6] = target: T6, 4H477-bH; assay: two-hybrid library CCNG1;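 also: natural log of median RNA to DNA barcode read ratio; higher means stronger binding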
T6 chain: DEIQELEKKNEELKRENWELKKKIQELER

[7] = target: T7, 4H3497-bH; assay: two-hybrid library CCNG1
T7 chain: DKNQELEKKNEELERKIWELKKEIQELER

[8] = target: T8, 4H906-bH; assay: two-hybrid library CCNG1
T8 chain: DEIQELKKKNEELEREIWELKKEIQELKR

[9] = target: T9, 4H591-bH; assay: two-hybrid library CCNG1
T9 chain: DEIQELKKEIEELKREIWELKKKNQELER

[10] = target: T10, 4H492-bH; assay: two-hybrid library CCNG1
T10 chain: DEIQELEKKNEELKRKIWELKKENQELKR

[11] = target: T11, 4H3298-bH; assay: two-hybrid library CCNG1
T11 chain: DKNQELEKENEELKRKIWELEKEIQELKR

[12] = target: T12, 4H3926-bH; assay: two-hybrid library CCNG1
T12 chain: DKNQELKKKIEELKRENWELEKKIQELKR

[13] = target: T13, 4H348-bH; assay: two-hybrid library CCNG1
T13 chain: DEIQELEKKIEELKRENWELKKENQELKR

[14] = target: T14, 4H3277-bH; assay: two-hybrid library CCNG1
T14 chain: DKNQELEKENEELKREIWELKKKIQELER

[15] = target: T15, 4H741-bH; assay: two-hybrid library CCNG1
T15 chain: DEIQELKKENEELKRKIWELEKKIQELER

[16] = target: T16, 4H428-AA; assay: two-hybrid library CCmax; settings: mean of both orientations
T16 chain: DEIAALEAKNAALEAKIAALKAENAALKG

[17] = target: T17, 4H3066-AA; assay: two-hybrid library CCmax; settings: mean of both orientations
T17 chain: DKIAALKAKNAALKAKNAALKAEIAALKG

[18] = target: T18, 4H3591-AA; assay: two-hybrid library CCmax; settings: mean of both orientations
T18 chain: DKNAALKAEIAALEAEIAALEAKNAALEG

[19] = target: T19, 4H478-AA; assay: two-hybrid library CCmax; settings: mean of both orientations
T19 chain: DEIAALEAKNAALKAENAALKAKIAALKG

[20] = target: T20, 4H3417-AA; assay: two-hybrid library CCmax; settings: mean of both orientations
T20 chain: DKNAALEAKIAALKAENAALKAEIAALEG

[21] = target: T21, 4H2991-AA; assay: two-hybrid library CCmax; settings: mean of both orientations
T21 chain: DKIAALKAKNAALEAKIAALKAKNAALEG

[22] = target: T22, 4H675-AA; assay: two-hybrid library CCmax; settings: mean of both orientations
T22 chain: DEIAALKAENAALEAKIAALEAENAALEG

[23] = target: T23, 4H2713-AA; assay: two-hybrid library CCmax; settings: mean of both orientations
T23 chain: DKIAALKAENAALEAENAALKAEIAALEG

[24] = target: T24, 4H2248-AA; assay: two-hybrid library CCmax; settings: mean of both orientations
T24 chain: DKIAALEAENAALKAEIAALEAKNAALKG

[25] = target: T25, 4H3628-AA; assay: two-hybrid library CCmax; settings: mean of both orientations
T25 chain: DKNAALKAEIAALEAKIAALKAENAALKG

[26] = target: T26, 4H3029-AA; assay: two-hybrid library CCmax; settings: mean of both orientations
T26 chain: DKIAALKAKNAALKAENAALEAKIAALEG

[27] = target: T27, 4H2283-AA; assay: two-hybrid library CCmax; settings: mean of both orientations
T27 chain: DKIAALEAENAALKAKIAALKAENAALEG

[28] = target: T28, 4H3446-AA; assay: two-hybrid library CCmax; settings: mean of both orientations
T28 chain: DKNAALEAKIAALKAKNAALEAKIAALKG

[29] = target: T29, 4H3666-AA; assay: two-hybrid library CCmax; settings: mean of both orientations
T29 chain: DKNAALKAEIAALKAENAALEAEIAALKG

[30] = target: T30, 4H3121-AA; assay: two-hybrid library CCmax; settings: mean of both orientations
T30 chain: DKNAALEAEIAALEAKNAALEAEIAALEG

[31] = target: T31, 4H971-AA; assay: two-hybrid library CCmax; settings: mean of both orientations
T31 chain: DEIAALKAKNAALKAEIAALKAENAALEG

[32] = target: T32, 4H3920-AA; assay: two-hybrid library CCmax; settings: mean of both orientations
T32 chain: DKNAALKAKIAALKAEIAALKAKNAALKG

[33] = target: T33, 4H3709-AA; assay: two-hybrid library CCmax; settings: mean of both orientations
T33 chain: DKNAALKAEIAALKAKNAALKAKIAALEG

[34] = target: T34, 4H189-AA; assay: two-hybrid library CCmax
T34 chain: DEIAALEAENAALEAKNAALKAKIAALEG

[35] = target: T35, 4H3102-AA; assay: two-hybrid library CCmax; settings: mean of both orientations
T35 chain: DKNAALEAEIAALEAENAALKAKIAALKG

[36] = target: T36, 4H2948-AA; assay: two-hybrid library CCmax; settings: mean of both orientations
T36 chain: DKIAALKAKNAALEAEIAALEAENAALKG

[37] = target: T37, 4H2742-AA; assay: two-hybrid library CCmax; settings: mean of both orientations
T37 chain: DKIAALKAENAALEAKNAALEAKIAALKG

[38] = target: T38, 4H497-AA; assay: two-hybrid library CCmax; settings: mean of both orientations
T38 chain: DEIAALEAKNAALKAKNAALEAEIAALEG

[39] = target: T39, 4H656-AA; assay: two-hybrid library CCmax; settings: mean of both orientations
T39 chain: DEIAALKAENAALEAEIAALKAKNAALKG

[40] = target: T40, 4H391-AA; assay: two-hybrid library CCmax; settings: mean of both orientations
T40 chain: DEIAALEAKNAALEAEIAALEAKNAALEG

[41] = target: T41, 4H3939-AA; assay: two-hybrid library CCmax
T41 chain: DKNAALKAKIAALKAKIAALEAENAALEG

[42] = target: T42, 4H2839-bH; assay: two-hybrid library CCNG1
T42 chain: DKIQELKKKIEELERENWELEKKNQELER

[43] = target: T43, 4H3057-bH; assay: two-hybrid library CCNG1
T43 chain: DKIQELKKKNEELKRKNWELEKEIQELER

[44] = target: T44, 4H2915-bH; assay: two-hybrid library CCNG1
T44 chain: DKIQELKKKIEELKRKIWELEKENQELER

[45] = target: T45, 4H2717-bH; assay: two-hybrid library CCNG1
T45 chain: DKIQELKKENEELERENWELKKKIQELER

[46] = target: T46, 4H319-bH; assay: two-hybrid library CCNG1
T46 chain: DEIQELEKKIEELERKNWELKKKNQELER

DKNQELEKENEELKREIWELKKKIQELER [4H3277-bH]
interaction score [1]: 0.141 | interaction score [2]: 0.203 | interaction score [3]: -1.48 | interaction score [4]: -0.0624 | interaction score [5]: -1.06 | interaction score [6]: 0.256 | interaction score [7]: -0.711 | interaction score [8]: -0.423 | interaction score [9]: 0.0179 | interaction score [10]: -0.305 | interaction score [11]: -0.709 | interaction score [12]: -0.167 | interaction score [13]: 0.219 | interaction score [14]: 1.3 | interaction score [15]: -2.8

DEIAALEAENAALEAKNAALKAKIAALEG [4H189-AA]
interaction score [16]: -1.92 | interaction score [17]: 1.07 | interaction score [18]: -0.919 | interaction score [19]: 1.85 | interaction score [20]: -1.19 | interaction score [21]: -1.76 | interaction score [22]: -1.31 | interaction score [23]: 1.05 | interaction score [24]: -1.26 | interaction score [25]: -1.64 | interaction score [26]: 2.05 | interaction score [27]: -1.71 | interaction score [28]: -1.07 | interaction score [29]: -0.914 | interaction score [30]: -1.84 | interaction score [31]: -1.52 | interaction score [32]: -1.97 | interaction score [33]: -1.23 | interaction score [34]: -1.25 | interaction score [35]: -1.74 | interaction score [36]: -1.02 | interaction score [37]: 1.11 | interaction score [38]: 0.26 | interaction score [39]: -0.83 | interaction score [40]: -1.47 | interaction score [41]: -1.4

DKIQELKKENEELERENWELKKKIQELER [4H2717-bH]
interaction score [1]: -0.815 | interaction score [42]: -0.51 | interaction score [6]: 1.38 | interaction score [43]: -0.185 | interaction score [10]: -0.752 | interaction score [44]: -0.399 | interaction score [45]: 1.16 | interaction score [46]: -0.701 | interaction score [13]: -0.364 | interaction score [14]: -0.479 | interaction score [15]: -1.79
